Experiments:
[1] = biological target: T1, mouse C1q (mouse, UniProt P14106 26-253); assay: BLI (OCTET)
[2] = biological target: T2, human C1q (human, UniProt P02745 23-245; P02746 28-253; P02747 29-245); assay: BLI (OCTET)
T2 construct: Native C1q (about 460 kDa) holds several copies of each chain; also called hC1q; C1Q antigen

[3] = biological target: T1, mouse C1q; assay: BLI (OCTET), C1q immobilised, antibody 2.0 ug/ml
[4] = biological target: T2, human C1q; assay: BLI (OCTET), C1q immobilised, antibody 2.0 ug/ml

T1 sequence (chain, as listed by the source, chain 1 of 3): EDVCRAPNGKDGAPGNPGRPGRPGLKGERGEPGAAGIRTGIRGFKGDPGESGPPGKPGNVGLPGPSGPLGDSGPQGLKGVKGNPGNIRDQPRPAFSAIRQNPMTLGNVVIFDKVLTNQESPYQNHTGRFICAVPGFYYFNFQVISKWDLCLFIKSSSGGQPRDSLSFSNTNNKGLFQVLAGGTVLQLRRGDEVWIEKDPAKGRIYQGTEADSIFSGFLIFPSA
T1 sequence (P14106 26-253, chain 2 of 3): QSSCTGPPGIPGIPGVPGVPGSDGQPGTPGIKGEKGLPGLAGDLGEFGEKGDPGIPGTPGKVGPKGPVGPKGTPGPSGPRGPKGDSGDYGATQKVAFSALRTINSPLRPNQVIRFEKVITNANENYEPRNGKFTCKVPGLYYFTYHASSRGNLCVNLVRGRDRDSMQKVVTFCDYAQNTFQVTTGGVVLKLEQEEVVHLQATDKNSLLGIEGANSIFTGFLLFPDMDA
T1 sequence (chain, as listed by the source, chain 3 of 3): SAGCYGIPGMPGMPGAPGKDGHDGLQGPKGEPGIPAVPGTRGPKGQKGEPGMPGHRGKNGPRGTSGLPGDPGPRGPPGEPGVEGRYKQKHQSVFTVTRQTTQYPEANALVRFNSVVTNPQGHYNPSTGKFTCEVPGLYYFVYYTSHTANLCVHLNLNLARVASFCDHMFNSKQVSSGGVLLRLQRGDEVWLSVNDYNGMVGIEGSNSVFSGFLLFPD
T2 sequence (P02745 23-245 limits assumed, chain 1 of 3): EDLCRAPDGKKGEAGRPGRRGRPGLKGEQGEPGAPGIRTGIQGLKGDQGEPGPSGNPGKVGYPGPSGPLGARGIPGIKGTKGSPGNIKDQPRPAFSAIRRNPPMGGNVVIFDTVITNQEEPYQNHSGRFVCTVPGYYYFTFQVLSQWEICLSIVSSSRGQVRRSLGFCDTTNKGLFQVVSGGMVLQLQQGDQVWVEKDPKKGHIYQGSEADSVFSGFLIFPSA
T2 sequence (P02746 28-253 limits assumed, chain 2 of 3): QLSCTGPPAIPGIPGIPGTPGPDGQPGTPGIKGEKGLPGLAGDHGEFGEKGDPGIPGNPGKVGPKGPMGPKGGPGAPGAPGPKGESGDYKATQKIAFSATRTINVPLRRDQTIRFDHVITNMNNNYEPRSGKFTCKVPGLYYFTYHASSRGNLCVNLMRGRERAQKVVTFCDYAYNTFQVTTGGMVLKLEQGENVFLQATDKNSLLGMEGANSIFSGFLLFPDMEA
T2 sequence (P02747 29-245 limits assumed, chain 3 of 3): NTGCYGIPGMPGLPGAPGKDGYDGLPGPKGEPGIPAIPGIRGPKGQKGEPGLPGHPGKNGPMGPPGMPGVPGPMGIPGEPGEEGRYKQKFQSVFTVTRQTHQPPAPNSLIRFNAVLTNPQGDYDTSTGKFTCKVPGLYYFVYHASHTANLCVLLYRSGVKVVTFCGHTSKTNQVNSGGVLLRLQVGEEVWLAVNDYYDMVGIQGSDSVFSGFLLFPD

Kd [1]: < 0.1 nM | Kd [2]: < 0.1 nM | Kd [3]: 0.0323 nM | koff [3]: 5.84e-05 s⁻¹ | kon [3]: 1.81e+06 M⁻¹ s⁻¹ | Kd [4]: 0.0128 nM | koff [4]: 6.31e-05 s⁻¹ | kon [4]: 5.18e+06 M⁻¹ s⁻¹
B1: murine anti-human C1q monoclonal antibody M1 (antibody)
chain 1: QVQLQQPGAELVKPGASVKLSCKSSGYHFTSYWMHWVKQRPGQGLEWIGVIHPNSGSINYNEKFESKATLTVDKSSSTAYMQLSSLTSEDSAVYYCAGERDSTEVLPMDYWGQGTSVTVSS
chain 2: DVQITQSPSYLAASPGETITINCRASKSINKYLAWYQEKPGKTNKLLIYSGSTLQSGIPSRFSGSGSGTDFTLTISSLEPEDFAMYYCQQHNEYPLTFGAGTKLELK
